Assays:
HeLa Kyoto [1] = test: solubility in G1/S (NP-40 vs SDS abundance) (log2 ratio); higher = more soluble; settings: cell cycle stage: G1/S
HeLa Kyoto [2] = test: solubility change mitosis vs G1/S (difference of NP-40 vs SDS log2 ratios) (log2 ratio difference); higher = more soluble in mitosis
HeLa Kyoto [3] = test: thermal stability score vs G1/S (z-score of summed log2 fold changes over temperatures); higher = more thermally stable than in G1/S
[4] = cell cycle stage: early G1 (4.5 h after nocodazole release)
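Wherever solubility change mitosis vs G1/S (difference of NP-40 vs SDS log2 ratios) is given: synchronized HeLa Kyoto cells (double thymidine block for G1/S, nocodazole release for mitosis), protein amounts in NP-40 versus SDS lysates quantified by mass spectrometry, three biological replicates.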
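Wherever solubility in G1/S (NP-40 vs SDS abundance) is given: HeLa Kyoto cells arrested at G1/S by double thymidine block, proteins quantified by TMT10plex mass spectrometry in mild NP-40 versus SDS extracts, three biological replicates.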
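Wherever thermal stability score vs G1/S (z-score of summed log2 fold changes over temperatures) is given: synchronized HeLa Kyoto cells, proteins quantified by TMT10plex mass spectrometry, three biological replicates, mitosis taken 0.5 h after nocodazole release, G1/S directly after double thymidine block.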

Chain of DGKA (chain, as listed by the source): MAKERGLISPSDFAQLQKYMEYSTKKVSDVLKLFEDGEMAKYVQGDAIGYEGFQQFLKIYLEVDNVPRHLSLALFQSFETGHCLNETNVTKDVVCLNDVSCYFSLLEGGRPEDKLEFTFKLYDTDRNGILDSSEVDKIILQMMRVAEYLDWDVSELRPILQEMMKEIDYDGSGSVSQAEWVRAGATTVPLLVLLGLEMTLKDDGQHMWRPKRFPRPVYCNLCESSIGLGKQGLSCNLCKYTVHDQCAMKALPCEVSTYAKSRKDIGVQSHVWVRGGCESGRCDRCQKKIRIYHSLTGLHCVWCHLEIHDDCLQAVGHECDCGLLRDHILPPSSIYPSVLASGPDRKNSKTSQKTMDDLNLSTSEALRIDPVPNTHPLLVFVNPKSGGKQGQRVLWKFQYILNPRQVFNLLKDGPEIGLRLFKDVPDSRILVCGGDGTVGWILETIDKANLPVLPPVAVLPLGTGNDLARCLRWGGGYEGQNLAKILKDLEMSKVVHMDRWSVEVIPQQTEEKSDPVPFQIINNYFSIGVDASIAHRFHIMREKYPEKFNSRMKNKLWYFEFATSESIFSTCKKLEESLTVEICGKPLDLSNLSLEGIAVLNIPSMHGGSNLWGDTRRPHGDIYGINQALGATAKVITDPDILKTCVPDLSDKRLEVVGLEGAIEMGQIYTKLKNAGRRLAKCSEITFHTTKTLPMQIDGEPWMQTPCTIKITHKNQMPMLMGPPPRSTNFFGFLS

| Substance | solubility in G1/S (log2) (HeLa Kyoto [1]) | solubility change mitosis (log2) (HeLa Kyoto [2]) | thermal stability score (HeLa Kyoto [3]; [4]) | thermal stability score (HeLa Kyoto [3]; cell cycle stage: mitosis) |
| --- | --- | --- | --- | --- |
| MKGFKLSCTASNSNRSTPACSPILRKRSRSPTPQNQDGDTMVEKGSDHSSDKSPSTPEQGVQRSCSSQSGRSGGKNSKKSQSWYNVLSPTYKQRNEDFRKLFKQLPDTERLIVDYSCALQRDILLQGRLYLSENWICFYSNIFRWETLLTVRLKDICSMTKEKTARLIPNAIQVCTDSEKHFFTSFGARDRTYMMMFRLWQNALLEKPLCPKELWHFVHQCYGNELGLTSDDEDYVPPDDDFNTMGYCEEIPVEENEVNDSSSKSSIETKPDASPQLPKKSITNSTLTSTGSSEAPVSFDGLPLEEEALEGDGSLEKELAIDNIMGEKIEMIAPVNSPSLDFNDNEDIPTELSDSSDTHDEGEVQAFYEDLSGRQYVNEVFNFSVDKLYDLLFTNSPFQRDFMEQRRFSDIIFHPWKKEENGNQSRVILYTITLTNPLAPKTATVRETQTMYKASQESECYVIDAEVLTHDVPYHDYFYTINRYTLTRVARNKSRLRVSTELRYRKQPWGLVKTFIEKNFWSGLEDYFRHLESELAKTESTYLAEMHRQSPKEKASKTTTVRRRKRPHAHLRVPHLEEVMSPVTTPTDEDVGHRIKHVAGSTQTRHIPEDTPNGFHLQSVSKLLLVISCVICFSLVLLVILNMMLFYKLWMLEYTTQTLTAWQGLRLQERLPQSQTEWAQLLESQQKYHDTELQKWREIIKSSVMLLDQMKDSLINLQNGIRSRDYTSESEEKRNRYH [GRAMD1B] | -0.0228 | 0.151 | -0.0752 | -0.742 |
| DGKA | -0.0832 | -0.157 | 0.0904 | 0.484 |
| MSDILRELLCVSEKAANIARACRQQEALFQLLIEEKKEGEKNKKFAVDFKTLADVLVQEVIKQNMENKFPGLEKNIFGEESNEFTNDWGEKITLRLCSTEEETAELLSKVLNGNKVASEALARVVHQDVAFTDPTLDSTEINVPQDILGIWVDPIDSTYQYIKGSADIKSNQGIFPCGLQCVTILIGVYDIQTGVPLMGVINQPFVSRDPNTLRWKGQCYWGLSYMGTNMHSLQLTISRRNGSETHTGNTGSEAAFSPSFSAVISTSEKETIKAALSRVCGDRIFGAAGAGYKSLCVVQGLVDIYIFSEDTTFKWDSCAAHAILRAMGGGIVDLKECLERNPETGLDLPQLVYHVENEGAAGVDRWANKGGLIAYRSRKRLETFLSLLVQNLAPAETHT [INPP1] | 0.0309 | -0.114 | 0.000408 | -0.083 |
| MSSLGASFVQIKFDDLQFFENCGGGSFGSVYRAKWISQDKEVAVKKLLKIEKEAEILSVLSHRNIIQFYGVILEPPNYGIVTEYASLGSLYDYINSNRSEEMDMDHIMTWATDVAKGMHYLHMEAPVKVIHRDLKSRNVVIAADGVLKICDFGASRFHNHTTHMSLVGTFPWMAPEVIQSLPVSETCDTYSYGVVLWEMLTREVPFKGLEGLQVAWLVVEKNERLTIPSSCPRSFAELLHQCWEADAKKRPSFKQIISILESMSNDTSLPDKCNSFLHNKAEWRCEIEATLERLKKLERDLSFKEQELKERERRLKMWEQKLTEQSNTPLLPSFEIGAWTEDDVYCWVQQLVRKGDSSAEMSVYASLFKENNITGKRLLLLEEEDLKDMGIVSKGHIIHFKSAIEKLTHDYINLFHFPPLIKDSGGEPEENEEKIVNLELVFGFHLKPGTGPQDCKWKMYMEMDGDEIAITYIKDVTFNTNLPDAEILKMTKPPFVMEKWIVGIAKSQTVECTVTYESDVRTPKSTKHVHSIQWSRTKPQDEVKAVQLAIQTLFTNSDGNPGSRSDSSADCQWLDTLRMRQIASNTSLQRSQSNPILGSPFFSHFDGQDSYAAAVRRPQVPIKYQQITPVNQSRSSSPTQYGLTKNFSSLHLNSRDSGFSSGNTDTSSERGRYSDRSRNKYGRGSISLNSSPRGRYSGKSQHSTPSRGRYPGKFYRVSQSALNPHQSPDFKRSPRDLHQPNTIPGMPLHPETDSRASEEDSKVSEGGWTKVEYRKKPHRPSPAKTNKERARGDHRGWRNF [ZAK] | -1.14 | 0.649 | -0.231 | -2.89 |
| MLLPWATSAPGLAWGPLVLGLFGLLAASQPQAVPPYASENQTCRDQEKEYYEPQHRICCSRCPPGTYVSAKCSRIRDTVCATCAENSYNEHWNYLTICQLCRPCDPVMGLEEIAPCTSKRKTQCRCQPGMFCAAWALECTHCELLSDCPPGTEAELKDEVGKGNNHCVPCKAGHFQNTSSPSARCQPHTRCENQGLVEAAPGTAQSDTTCKNPLEPLPPEMSGTMLMLAVLLPLAFFLLLATVFSCIWKSHPSLCRKLGSLLKRRPQGEGPNPVAGSWEPPKAHPYFPDLVQPLLPISGDVSPVSTGLPAAPVLEAGVPQQQSPLDLTREPQLEPGEQSQVAHGTNGIHVTGGSMTITGNIYIYNGPVLGGPPGPGDLPATPEPPYPIPEEGDPGPPGLSTPHQEDGKAWHLAETEHCGATPSNRGPRNQFITHD [LTBR] | -0.758 | 0.703 | -2.45 | -1.87 |
| MDAATLTYDTLRFAEFEDFPETSEPVWILGRKYSIFTEKDEILSDVASRLWFTYRKNFPAIGGTGPTSDTGWGCMLRCGQMIFAQALVCRHLGRDWRWTQRKRQPDSYFSVLNAFIDRKDSYYSIHQIAQMGVGEGKSIGQWYGPNTVAQVLKKLAVFDTWSSLAVHIAMDNTVVMEEIRRLCRTSVPCAGATAFPADSDRHCNGFPAGAEVTNRPSPWRPLVLLIPLRLGLTDINEAYVETLKHCFMMPQSLGVIGGKPNSAHYFIGYVGEELIYLDPHTTQPAVEPTDGCFIPDESFHCQHPPCRMSIAELDPSIAVGFFCKTEDDFNDWCQQVKKLSLLGGALPMFELVELQPSHLACPDVLNLSLDSSDVERLERFFDSEDEDFEILSL [ATG4B] | -0.00856 | -0.28 | -0.634 | 1.02 |
| MEGLLTRCRALPALATCSRQLSGYVPCRFHHCAPRRGRRLLLSRVFQPQNLREDRVLSLQDKSDDLTCKSQRLMLQVGLIYPASPGCYHLLPYTVRAMEKLVRVIDQEMQAIGGQKVNMPSLSPAELWQATNRWDLMGKELLRLRDRHGKEYCLGPTHEEAITALIASQKKLSYKQLPFLLYQVTRKFRDEPRPRFGLLRGREFYMKDMYTFDSSPEAAQQTYSLVCDAYCSLFNKLGLPFVKVQADVGTIGGTVSHEFQLPVDIGEDRLAICPRCSFSANMETLDLSQMNCPACQGPLTKTKGIEVGHTFYLGTKYSSIFNAQFTNVCGKPTLAEMGCYGLGVTRILAAAIEVLSTEDCVRWPSLLAPYQACLIPPKKGSKEQAASELIGQLYDHITEAVPQLHGEVLLDDRTHLTIGNRLKDANKFGYPFVIIAGKRALEDPAHFEVWCQNTGEVAFLTKDGVMDLLTPVQTV [PARS2] | -0.0434 | -0.176 | -2.04 | -2.68 |
| MTGLYELVWRVLHALLCLHRTLTSWLRVRFGTWNWIWRRCCRAASAAVLAPLGFTLRKPPAVGRNRRHHRHPRGGSCLAAAHHRMRWRADGRSLEKLPVHMGLVITEVEQEPSFSDIASLVVWCMAVGISYISVYDHQGIFKRNNSRLMDEILKQQQELLGLDCSKYSPEFANSNDKDDQVLNCHLAVKVLSPEDGKADIVRAAQDFCQLVAQKQKRPTDLDVDTLASLLSSNGCPDPDLVLKFGPVDSTLGFLPWHIRLTEIVSLPSHLNISYEDFFSALRQYAACEQRLGK [NUS1] | 0.00319 | 0.162 | -0.859 | 0.124 |
| MAGAENWPGQQLELDEDEASCCRWGAQHAGARELAALYSPGKRLQEWCSVILCFSLIAHNLVHLLLLARWEDTPLVILGVVAGALIADFLSGLVHWGADTWGSVELPIVGKAFIRPFREHHIDPTAITRHDFIETNGDNCLVTLLPLLNMAYKFRTHSPEALEQLYPWECFVFCLIIFGTFTNQIHKWSHTYFGLPRWVTLLQDWHVILPRKHHRIHHVSPHETYFCITTGWLNYPLEKIGFWRRLEDLIQGLTGEKPRADDMKWAQKIK [TMEM189] | -0.215 | 0.0319 | -3.23 | -3.53 |
| MDGLQASAGPLRRGRPKRRRKPQPHSGSVLALPLRSRKIRKQLRSVVSRMAALRTQTLPSENSEESRVESTADDLGDALPGGAAVAAVPDAARREPYGHLGPAELLEASPAARSLQTPSARLVPASAPPARLVEVPAAPVRVVETSALLCTAQHLAAVQSSGAPATASGPQVDNTGGEPAWDSPLRRVLAELNRIPSSRRRAARLFEWLIAPMPPDHFYRRLWEREAVLVRRQDHTYYQGLFSTADLDSMLRNEEVQFGQHLDAARYINGRRETLNPPGRALPAAAWSLYQAGCSLRLLCPQAFSTTVWQFLAVLQEQFGSMAGSNVYLTPPNSQGFAPHYDDIEAFVLQLEGRKLWRVYRPRVPTEELALTSSPNFSQDDLGEPVLQTVLEPGDLLYFPRGFIHQAECQDGVHSLHLTLSTYQRNTWGDFLEAILPLAVQAAMEENVEFRRGLPRDFMDYMGAQHSDSKDPRRTAFMEKVRVLVARLGHFAPVDAVADQRAKDFIHDSLPPVLTDRERALSVYGLPIRWEAGEPVNVGAQLTTETEVHMLQDGIARLVGEGGHLFLYYTVENSRVYHLEEPKCLEIYPQQADAMELLLGSYPEFVRVGDLPCDSVEDQLSLATTLYDKGLLLTKMPLALN [NO66] | -0.879 | 0.755 | -0.151 | 0.066 |
| TMEM131 | -0.0423 | -0.0264 | -1.15 | -1.6 |
| MNNKFDALKDDDSGDHDQNEENSTQKDGEKEKTERDKNQSSSKRKAVVPGPAEHPLQYNYTFWYSRRTPGRPTSSQSYEQNIKQIGTFASVEQFWRFYSHMVRPGDLTGHSDFHLFKEGIKPMWEDDANKNGGKWIIRLRKGLASRCWENLILAMLGEQFMVGEEICGAVVSVRFQEDIISIWNKTASDQATTARIRDTLRRVLNLPPNTIMEYKTHTDSIKMPGRLGPQRLLFQNLWKPRLNVP [EIF4E2] | 0.114 | 0.000807 | -1.02 | -0.941 |
| MKDYDELLKYYELHETIGTGGFAKVKLACHILTGEMVAIKIMDKNTLGSDLPRIKTEIEALKNLRHQHICQLYHVLETANKIFMVLEYCPGGELFDYIISQDRLSEEETRVVFRQIVSAVAYVHSQGYAHRDLKPENLLFDEYHKLKLIDFGLCAKPKGNKDYHLQTCCGSLAYAAPELIQGKSYLGSEADVWSMGILLYVLMCGFLPFDDDNVMALYKKIMRGKYDVPKWLSPSSILLLQQMLQVDPKKRISMKNLLNHPWIMQDYNYPVEWQSKNPFIHLDDDCVTELSVHHRNNRQTMEDLISLWQYDHLTATYLLLLAKKARGKPVRLRLSSFSCGQASATPFTDIKSNNWSLEDVTASDKNYVAGLIDYDWCEDDLSTGAATPRTSQFTKYWTESNGVESKSLTPALCRTPANKLKNKENVYTPKSAVKNEEYFMFPEPKTPVNKNQHKREILTTPNRYTTPSKARNQCLKETPIKIPVNSTGTDKLMTGVISPERRCRSVELDLNQAHMEETPKRKGAKVFGSLERGLDKVITVLTRSKRKGSARDGPRRLKLHYNVTTTRLVNPDQLLNEIMSILPKKHVDFVQKGYTLKCQTQSDFGKVTMQFELEVCQLQKPDVVGIRRQRLKGDAWVYKRLVEDILSSCKV [MELK] | -0.42 | 0.0602 | -0.242 | 0.0849 |

— the supplement of paper PMC5998384
